These results are taken from US9266930.

One assay concerns the target HLA-A*0206 (human). In words: competition with 125I probe peptide for purified HLA, gel filtration. A general note: In gel filtration, larger molecules generally elute earlier.
The target in assay [1] is HLA-DR3 (DRB1*0301) (human). Put plainly: competition with 125I-labeled probe peptide on purified HLA-DR, gel filtration.
The target of assay [2] is HLA-A*0201 (human). In words: competition with 125I probe peptide for purified HLA, gel filtration.
For the next assay, the target named is HLA-A*0203 (human). The assay is described as above.
For assay [3], the target named is T1, HLA-DR2w2β2 (DRB5*0101) (human).
T1 chain 1: not shown
T1 chain 2: not shown
In words: inhibition of 125I-probe peptide binding to purified HLA-DR, gel filtration.

Assay [4] concerns the target T2, HLA-DR1 (DRB1*0101) (human).
T2 chain 1: not shown
T2 chain 2: not shown
Described as above.

Assay [5] has as its target T3, HLA-DR4w4 (DRB1*0401) (human).
T3 chain 1: not shown
T3 chain 2: not shown
The description is as above.

In assay [6] the target is T4, HLA-DR5w11 (DRB1*1101) (human).
T4 chain 1: not shown
T4 chain 2: not shown
Described as above.

In assay [7] the target is T5, HLA-DR4w15 (DRB1*0405) (human).
T5 chain 1: not shown
T5 chain 2: not shown
The description is as above.

For assay [8], the target named is HLA-A*1101 (human). Put plainly: competition with 125I-labelled standard peptide for purified HLA, gel filtration.
The target of another assay is HLA-A*3301 (human). Described as above.
The target of the next assay is HLA-A*0301 (human). The assay is described as above.
The target in a further assay is HLA-A*6801 (human). The description is as above.
In assay [9] the target is T6, HLA-DR5w12 (DRB1*1201) (human).
T6 chain 1: not shown
T6 chain 2: not shown

Assay [10] deals with T7, HLA-DR7 (DRB1*0701) (human).
T7 chain 1: not shown
T7 chain 2: not shown

In assay [11] the target is T8, HLA-DR6w19 (DRB1*1302) (human).
T8 chain 1: not shown
T8 chain 2: not shown

Assay [12] has as its target T9, HLA-DR9 (DRB1*0901) (human).
T9 chain 1: not shown
T9 chain 2: not shown

For assay [13], the target named is T10, HLA-DR8w2 (DRB1*0802) (human).
T10 chain 1: not shown
T10 chain 2: not shown

Assay [14] concerns the target HLA-DR2w2β2 (DRB5*0101) (human).
In assay [15] the target is HLA-DR3 (DRB1*0301) (human).
Assay [16] addresses HLA-DR5w11 (DRB1*1101) (human).
Assay [17] concerns the target HLA-DR4w15 (DRB1*0405) (human).
The target of assay [18] is HLA-DR2w2β1 (DRB1*1501) (human).
Assay [19] concerns the target HLA-A*0201 (human).
For assay [20], the target named is HLA-A*1101 (purified HLA class I molecule) (human).
Assay [21] has as its target HLA-A*0201 (Human).
Assay [22] deals with HLA-A*1101 (human).
In assay [23] the target is HLA-DR1 (DRB1*0101) (human).
Assay [24] has as its target HLA-DR4w4 (DRB1*0401) (human).
Assay [25] deals with HLA-A*1101 (human). This is another data set of the same source.
Assay [26] deals with T6, HLA-DR5w12 (DRB1*1201) (human).
Assay [27] has as its target T1, HLA-DR2w2β2 (DRB5*0101) (human).
The target of assay [28] is T2, HLA-DR1 (DRB1*0101) (human).
Assay [29] addresses T4, HLA-DR5w11 (DRB1*1101) (human).
In assay [30] the target is T11, HLA-DR2w2β1 (DRB1*1501) (human).
T11 chain 1: not shown
T11 chain 2: not shown

Assay [31] deals with T5, HLA-DR4w15 (DRB1*0405) (human).

Where two headings read alike, the source gives them in different places.

B1: 1167.13 (peptide)
peptide: KILSVFFLA
modifications: not checked
B1 yielded a concentration for half-maximal inhibition (IC50) with HLA-A*0206 (human) of 8 nM.

B2: … (peptide)
peptide: FIIFNKESLAEKTNK
modifications: not checked
As to B2, the binding affinity ratio (IC50 standard peptide / IC50 test peptide) in [1] came out at 0.004.

B3: 1167.16 (peptide)
peptide: FMKAVCVEV
modifications: not checked
B3: the IC50 in the assay with HLA-A*0201 (human) [2] stood at 63 nM; with HLA-A*0203 (human), 2.9 nM; with HLA-A*0206 (human) it was 389 nM.

B4: … (P. falciparum CSP 15-mer, core …) (peptide)
peptide: EALFQEYQCYGSSSN
modifications: not checked
On to B4, for which the binding affinity ratio (relative binding) (ratio to standard peptide) in assay [3] was -0.0005; in assay [4] it was 0.0001; in assay [5], 0.0053; in assay [6], -0.0002; in assay [7], -0.0009.

B5: … (peptide)
peptide: PSPNPEEGK
modifications: not checked
Take B5: the binding affinity ratio (IC50 of standard peptide / IC50 of test peptide) in the assay with HLA-A*1101 (human) [8] was 0.0002; with HLA-A*3301 (human), 0.001; with HLA-A*0301 (human), 0.0005; with HLA-A*6801 (human), 0.0002.

B6: … (Pf EXP 6) (peptide)
peptide: VFFLALFFIIFNKES
modifications: not checked
In the case of B6, the binding affinity ratio (IC50 of standard peptide / IC50 of test peptide) in assay [9] was 0.0002; in assay [10], 0.0056; in assay [11], -0.0002; in [12] it was -0.0018; in assay [13], -0.0007.

B7: … (peptide)
peptide: VSTVLLGGVGLVLYN
modifications: not checked
For the molecule B7, the binding affinity ratio (IC50 of standard peptide / IC50 of test peptide) in assay [14] was 0.0005; in assay [15], -0.0008; in assay [16] it was 0.0003; in [17], -0.0009; in assay [18] it was 0.008.

B8: … (P. falciparum CSP, position 375, 9 amino acids) (peptide)
peptide: VTCGNGIQV
modifications: not checked
For B8, in the assay with HLA-A*0201 (human) [19], the binding affinity ratio (IC50 of standard peptide / IC50 of test peptide) is 0.0011.

B9: … (peptide)
peptide: VEALFQEYQCYGSSS
modifications: not checked
In the case of B9, the binding affinity ratio (IC50 standard peptide / IC50 test peptide) in assay [1] is 0.0082.

B10: … (Pf SSP2 254, 9-mer) (peptide)
peptide: SVTCGKGTR
modifications: not checked
B10: the binding affinity ratio (IC50 of standard peptide / IC50 of test peptide) in assay [20] is 0.0009.

B11: … (EXP position 75, 10 amino acids) (peptide)
peptide: KLATSVLAGL
modifications: not checked
As to B11, the binding affinity ratio (IC50 of standard peptide / IC50 of test peptide) with HLA-A*0201 (Human) [21] was determined as 0.0047.

B12: … (Pf EXP 3) (peptide)
peptide: ILSVFFLALFFIIFN
modifications: not checked
Regarding B12, the binding affinity ratio (IC50 of standard peptide / IC50 of test peptide) in assay [9] is 0.0008; in assay [10], 0.011; in assay [11], 0.0005; in [12], -0.0003; in [13] it was 0.0031.

B13: Pf EXP peptide … (position 9) (peptide)
peptide: LALFFIIFNK
modifications: not checked
Turning to B13, the binding affinity ratio (relative to standard peptide) with HLA-A*1101 (human) [22] is 0.053.

B14: … (peptide)
peptide: QVRKHLNDR
modifications: not checked
On to B14, for which the binding affinity ratio (IC50 of standard peptide / IC50 of test peptide) in the assay with HLA-A*1101 (human) [8] was determined as 0.0002; with HLA-A*0301 (human), 0.0005; with HLA-A*6801 (human) it was 0.0002.

B15: … (peptide)
peptide: ANQLVVILTDGIPDS
modifications: not checked
Turning to B15, the values for the binding affinity ratio (IC50 of standard peptide / IC50 of test peptide) in [14], in [16] and in assay [18] were -0.0005, -0.0002 and 0.0008, respectively.

B16: 1167.08 (peptide)
peptide: GLIMVLSFL
modifications: not checked
The molecule B16 displayed an IC50 with HLA-A*0201 (human) [2] of 22 nM.

B17: … (P. falciparum CSP, position 323, 10 amino acids) (peptide)
peptide: NMPNDPNRNV
modifications: not checked
As for B17, in the assay with HLA-A*0201 (human) [19], the binding affinity ratio (IC50 of standard peptide / IC50 of test peptide) is 0.0007.

B18: … (peptide)
peptide: IGPFMKAVCVEVEKT
modifications: not checked
As to B18, the binding affinity ratio (IC50 of standard peptide / IC50 of test peptide) is 0.0072 in [23]; -0.0008 in assay [15]; -0.0004 in [16]; -0.0006 in assay [24]; 0.0086 in assay [17]; 0.0003 in assay [18].

B19: … (EXP position 3, 9 amino acids) (peptide)
peptide: ILSVFFLAL
modifications: not checked
Take B19: in the assay with HLA-A*0201 (Human) [21], the binding affinity ratio (IC50 of standard peptide / IC50 of test peptide) amounted to 0.0058.

B20: … (P. falciparum CSP, position 415, 10 amino acids) (peptide)
peptide: SVFNVVNSSI
modifications: not checked
On to B20, for which the binding affinity ratio (IC50 of standard peptide / IC50 of test peptide) with HLA-A*0201 (human) [19] turned out to be 0.0005.

B21: … (P. falciparum EXP-1, position 28) (peptide)
peptide: GTGSGVSSKK
modifications: not checked
As for B21, the binding affinity ratio (IC50 of standard peptide / IC50 of test peptide) with HLA-A*1101 (human) [25] came to 0.034.

B22: … (Pf CSP DR-supermotif 15-mer, core …) (peptide)
peptide: EALFQEYQCYGSSSN
modifications: not checked
Regarding B22, the binding affinity ratio (relative to standard peptide) in [26] came to 0.0001.

B23: … (P. falciparum CSP 15-mer, core …) (peptide)
peptide: NSSIGLIMVLSFLFL
modifications: not checked
Turning to B23, the binding affinity ratio (relative binding) (ratio to standard peptide) in assay [27] is 0.0024; in assay [28], 0.004; in [29] it was -0.0005; in assay [30], 0.025; in [31] it was 0.0035.

B24: … (Pf EXP 88) (peptide)
peptide: VSTVLLGGVGLVLYN
modifications: not checked
Turning to B24, the binding affinity ratio (IC50 of standard peptide / IC50 of test peptide) is 0.0011 in assay [9]; 0.002 in assay [10]; 0.0002 in assay [11]; 0.012 in assay [12]; -0.0002 in [13].

B25: … (Pf SSP2 105, 9-mer) (peptide)
peptide: SDASKNKEK
modifications: not checked
Regarding B25, the binding affinity ratio (IC50 of standard peptide / IC50 of test peptide) in [20] turned out to be 0.0002.

B26: … (Pf SSP2 256, 10-mer) (peptide)
peptide: TCGKGTRSRK
modifications: not checked
Regarding B26, in [20], the binding affinity ratio (IC50 of standard peptide / IC50 of test peptide) was 0.0002.

What is called IC50 is the concentration that inhibits the measured activity by half. Read a low IC50 as greater potency.
